This is an account of results in doi:10.1101/2023.07.28.550924 (bioRxiv, 2023).

The data set “SEC” concerns the molecule itself. Put plainly: SEC.
The target in data set [1] is T1, Spirochaeta thermophila YeeE (Spirochaeta thermophila, UniProt G0GAP6 1-328).
T1 sequence (looked up): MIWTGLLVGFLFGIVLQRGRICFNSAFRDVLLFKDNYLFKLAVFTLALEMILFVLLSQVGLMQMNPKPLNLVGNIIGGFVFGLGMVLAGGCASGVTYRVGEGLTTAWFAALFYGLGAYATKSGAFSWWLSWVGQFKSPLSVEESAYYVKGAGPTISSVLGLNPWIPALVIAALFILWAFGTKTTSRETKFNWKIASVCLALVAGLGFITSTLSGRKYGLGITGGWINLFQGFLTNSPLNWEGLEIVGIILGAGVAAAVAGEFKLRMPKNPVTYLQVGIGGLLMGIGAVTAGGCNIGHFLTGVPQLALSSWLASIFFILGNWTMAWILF
Put plainly: BLI.

B1: Spirochaeta thermophila YeeD, His-tagged, wild type (natural protein, UniProt G0GAP7 1-80, looked up)
chain: MANYQVSKEIDVRGEVCPIPDVEAKRAVQSANDGEIILVRIDYPLSKERIPETVKKLGSEVLEIEEAAPGEWNIYIKVKK
B1: in the data set “SEC”, the “stoichiometry N” value is 2. The molecule also showed an equilibrium dissociation constant (Kd) in data set [1] of 1.6 ± 0.2 µM.
